The text below walks through data of patent US6387638.

Substitutions are numbered along the chain they refer to. Numbers in names are those of the source. Like-named read-outs stand apart in the source and are kept apart here. Ends that are not written are not given here.

In assay [1] the target is T1, ErbB-3 receptor-Ig fusion (homodimer) (human, UniProt P21860 20-643; P21860 20-636). The assay can be described thus: phage ELISA, soluble ErbB-3-Ig as competitor.
Assay [2] has as its target T2, ErbB-4 receptor-Ig fusion (homodimer) (human, UniProt Q15303 26-651; Q15303 26-640). The assay can be described thus: phage ELISA, soluble ErbB-4-Ig as competitor.
Assay [3] addresses T2, ErbB-4 receptor-Ig fusion (homodimer). The assay can be described thus: phage ELISA, soluble ErbB-4-Ig as competitor. This is another data set of the same source. For orientation: An ELISA detects its analyte on a solid surface through an enzyme-linked reagent.
In assay [4] the target is T1, ErbB-3 receptor-Ig fusion (homodimer). Briefly: phage ELISA, soluble ErbB-3-Ig as competitor. This is another data set of the same source.
Assay [5] addresses T2, ErbB-4 receptor-Ig fusion (homodimer). Briefly: phage ELISA, soluble ErbB-4-Ig as competitor. This is another data set of the same source.
Assay [6] addresses T1, ErbB-3 receptor-Ig fusion (homodimer). The assay can be described thus: phage ELISA, soluble ErbB-3-Ig as competitor. The source holds these as a separate data set.
The target is the same in assay [7]. Briefly: phage ELISA, soluble ErbB-3-Ig as competitor. This is another data set of the same source.
Assay [8] addresses T2, ErbB-4 receptor-Ig fusion (homodimer). Briefly: phage ELISA, soluble ErbB-4-Ig as competitor. This is another data set of the same source.

T1 sequence (P21860 other isoform, or with tags, fused parts or gaps): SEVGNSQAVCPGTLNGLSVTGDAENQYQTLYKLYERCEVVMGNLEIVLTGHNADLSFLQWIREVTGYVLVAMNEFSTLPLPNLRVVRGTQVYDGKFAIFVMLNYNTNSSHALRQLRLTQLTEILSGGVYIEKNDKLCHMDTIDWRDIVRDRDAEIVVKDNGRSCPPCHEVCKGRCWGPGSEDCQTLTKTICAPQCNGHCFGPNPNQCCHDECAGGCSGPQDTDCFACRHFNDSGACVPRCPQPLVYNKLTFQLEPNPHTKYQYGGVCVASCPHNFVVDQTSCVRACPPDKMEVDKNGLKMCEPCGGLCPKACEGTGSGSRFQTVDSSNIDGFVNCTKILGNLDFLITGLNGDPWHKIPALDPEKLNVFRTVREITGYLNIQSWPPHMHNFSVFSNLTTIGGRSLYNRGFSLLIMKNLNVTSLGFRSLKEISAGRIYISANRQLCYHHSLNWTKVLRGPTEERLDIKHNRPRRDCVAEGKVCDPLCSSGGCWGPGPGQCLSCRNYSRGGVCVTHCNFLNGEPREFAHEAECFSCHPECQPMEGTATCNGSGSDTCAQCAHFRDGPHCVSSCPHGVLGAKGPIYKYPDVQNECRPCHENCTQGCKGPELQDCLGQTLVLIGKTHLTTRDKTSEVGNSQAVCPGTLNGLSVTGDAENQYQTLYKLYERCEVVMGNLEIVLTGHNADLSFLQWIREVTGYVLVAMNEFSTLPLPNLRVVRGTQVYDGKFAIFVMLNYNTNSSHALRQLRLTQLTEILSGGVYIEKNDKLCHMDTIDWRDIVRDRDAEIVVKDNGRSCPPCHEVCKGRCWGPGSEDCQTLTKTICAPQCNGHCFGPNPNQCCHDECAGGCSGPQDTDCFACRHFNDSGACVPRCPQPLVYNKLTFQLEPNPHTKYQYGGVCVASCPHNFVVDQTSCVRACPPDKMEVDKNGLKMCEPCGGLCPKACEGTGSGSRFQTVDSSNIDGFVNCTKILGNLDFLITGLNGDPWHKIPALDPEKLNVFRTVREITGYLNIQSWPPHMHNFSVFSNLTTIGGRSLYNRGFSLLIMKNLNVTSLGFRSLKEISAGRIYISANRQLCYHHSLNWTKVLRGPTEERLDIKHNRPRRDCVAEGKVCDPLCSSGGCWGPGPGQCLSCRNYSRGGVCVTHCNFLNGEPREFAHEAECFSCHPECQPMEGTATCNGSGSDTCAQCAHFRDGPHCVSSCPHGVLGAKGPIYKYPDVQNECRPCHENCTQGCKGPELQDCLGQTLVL
T2 sequence (Q15303 other isoform, or with tags, fused parts or gaps): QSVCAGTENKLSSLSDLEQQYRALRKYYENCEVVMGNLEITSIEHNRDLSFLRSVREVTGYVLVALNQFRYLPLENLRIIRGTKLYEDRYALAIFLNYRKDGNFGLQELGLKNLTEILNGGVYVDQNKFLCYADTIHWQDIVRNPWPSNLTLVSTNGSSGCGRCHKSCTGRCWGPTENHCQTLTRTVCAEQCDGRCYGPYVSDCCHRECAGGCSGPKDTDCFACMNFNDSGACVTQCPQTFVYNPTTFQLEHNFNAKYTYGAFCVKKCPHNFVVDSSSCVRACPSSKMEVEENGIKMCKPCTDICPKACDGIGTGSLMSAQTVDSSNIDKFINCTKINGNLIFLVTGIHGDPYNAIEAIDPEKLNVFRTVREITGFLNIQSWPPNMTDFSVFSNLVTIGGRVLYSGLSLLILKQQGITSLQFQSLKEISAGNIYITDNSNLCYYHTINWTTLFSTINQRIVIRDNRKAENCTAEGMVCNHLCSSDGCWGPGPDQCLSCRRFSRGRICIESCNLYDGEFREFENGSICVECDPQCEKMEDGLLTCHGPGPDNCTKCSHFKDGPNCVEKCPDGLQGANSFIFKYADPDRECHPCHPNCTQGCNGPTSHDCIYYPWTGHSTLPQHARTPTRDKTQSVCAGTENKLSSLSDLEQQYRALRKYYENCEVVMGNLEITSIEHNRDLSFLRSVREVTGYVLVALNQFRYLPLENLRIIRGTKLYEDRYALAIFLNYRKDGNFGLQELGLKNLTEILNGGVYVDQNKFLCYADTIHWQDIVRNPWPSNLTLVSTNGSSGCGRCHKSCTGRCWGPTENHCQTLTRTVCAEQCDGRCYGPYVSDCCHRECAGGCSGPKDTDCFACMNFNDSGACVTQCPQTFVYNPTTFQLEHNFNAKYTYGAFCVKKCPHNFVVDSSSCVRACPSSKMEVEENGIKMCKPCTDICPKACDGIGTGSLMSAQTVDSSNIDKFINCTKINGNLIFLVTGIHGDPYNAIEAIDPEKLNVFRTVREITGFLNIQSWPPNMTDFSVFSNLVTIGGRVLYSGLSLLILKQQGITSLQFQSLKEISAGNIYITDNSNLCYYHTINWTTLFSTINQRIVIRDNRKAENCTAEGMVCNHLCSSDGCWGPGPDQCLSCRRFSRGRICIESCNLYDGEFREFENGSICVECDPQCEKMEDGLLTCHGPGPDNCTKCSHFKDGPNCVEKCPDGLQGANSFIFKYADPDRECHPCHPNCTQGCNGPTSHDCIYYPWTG

Turning to “HRG-β1 177-244 H178L with 228-231 replaced by Met, phage-displayed (Example 4 clone) (from UniProt P69168 265-424) (ligand)”, the figures for the EC50 Mut/WT in assay [1] and in assay [2] were 6.4 and 1.7, respectively.
As to “HRG-β1 177-244 L179V, phage-displayed (Example 4 clone) (from UniProt P69168 265-424) (ligand)”, the EC50 Mut/WT in assay [1] came out at 1.5; in assay [2] it was 1.6.
For “HRG-β1 177-244 R207P, phage-displayed (Example 4 clone) (from UniProt P69168 265-424) (ligand)” the same measures were 6.1 and 1.3.
Take “HRG-β1 177-244 H178L, phage-displayed (Example 4 clone) (from UniProt P69168 265-424) (ligand)”: the values for the EC50 Mut/WT in assay [1] and in assay [2] were 1.4 and 1.2, respectively.
Taken in the same sequence, the figures for “HRG-β1 177-244 H178W with 228-231 replaced by Met, phage-displayed (Example 4 clone) (from UniProt P69168 265-424) (ligand)” were 1.2 and 1.7.

B1: HRG-β1 177-244 L179M, phage-displayed (Example 4 clone) (ligand)
chain: SHMVKCAEKEKTFCVNGGECFMVKDLSNPSRYLCKCPNEFTGDRCQNYVMASFYKHLGIEFMEAEELY
notes: not shown: Display carrier only: the M13 pIII C-terminal fragment from residue 247
For the molecule B1, the “EC50 Mut/WT” value in assay [3] was 1.5 ratio; in assay [4] it was 1.2 ratio.

B2: HRG-β1 177-244 F189A, phage-displayed (ligand)
chain: B1 chain with M3L, F13A
As to B2, the EC50 in assay [5] was 106 nM; in assay [6], 892 nM.

B3: HRG-β1 177-244 H178T L179M, phage-displayed (Example 4 clone) (ligand)
chain: B1 chain with H2T
notes: also called T M ·; not shown: M13 pIII C-terminal fragment (fusion point pIII 247), the phage display partner
For the molecule B3, the entries for the “EC50 Mut/WT” value in assay [3] and in assay [4] were 1.6 ratio and 1.4 ratio, respectively.

B4: HRG-β1 177-244 H178E L179V, phage-displayed (Example 4 clone) (ligand)
chain: B1 chain with H2E, M3V
notes: also called E V ·; not shown: M13 pIII C-terminal fragment (fusion point pIII 247), the phage display partner
B4: the “EC50 Mut/WT” value in assay [3] is 1.7 ratio; in assay [4] it was 0.8 ratio.

B5: HRG-β1 177-244 F216A, phage-displayed (ligand, phage M13)
chain: SHLVKCAEKEKTFCVNGGECFMVKDLSNPSRYLCKCPNEATGDRCQNYVMASFYKHLGIEFMEAEELYGGSGGGSGSGDFDYEKMANANKGAMTENADENALQSDAKGKLDSVATDYGAAIDGFIGDVSGLANGNGATGDFAGSNSQMAQVGDGDNSPLMNNFRQYLPSLPQSVECRPFVFSAGKPYEFSIDCDKINLFRGVFAFLLYVATFMYVASTFANILRNKES
notes: range 247-end
B5 returned a half-maximal effective concentration (EC50) in assay [6] of 500 nM.

B6: HRG-β1 EGF variant D4, phage-displayed (ligand)
chain: SHLVKCAEKEKTFCVNGGECYRVKTLSNPSRYLCKCPNEFTGDRCQNYVMAS
modifications: not fully specified; cysteine pairing not given here
notes: pHRG8-g3 scaffold; not shown: Display carrier only: the (GGGS)3 linker and the M13 pIII C-terminal fragment from residue 323
B6: the entries for the “EC50(wt)/EC50(mut)” value in assay [7] and in assay [8] were 2.9 ratio and 5 ratio, respectively.

B7: HRG8: wild-type HRG-β1 177-228 (HRG-β1 EGF 1-52) fused via (GGGS)3 to pIII 323, phage-displayed (ligand, phage M13)
chain: SHLVKCAEKEKTFCVNGGECFMVKDLSNPSRYLCKCPNEFTGDRCQNYVMASGGGSGGGSGGGSNSQMAQVGDGDNSPLMNNFRQYLPSLPQSVECRPFVFSAGKPYEFSIDCDKINLFRGVFAFLLYVATFMYVFSTFANILRNKES
notes: range 323-end; Monovalent M13 phage display; also called wild-type HRG-β1 EGF-phage
As for B7, the “EC50(wt)/EC50(mut)” value in assay [7] and in assay [8] was 1 ratio throughout.

For orientation: EC50 means the concentration at which the effect is half-maximal. A low value points to an effect from little substance.
